Drawing on paper PMC11883000 (2025), this text covers Kd for two molecules.

Where two headings read alike, the source gives them in different places. Ends that are not written are not given here. Me2 = dimethylation (dimethyl-lysine); Me3 = trimethyl on lysine side chain

Assay [1] deals with T1, ASH1L PHD finger-BAH domain (human, UniProt Q9NR48 2579-2834).
T1 chain: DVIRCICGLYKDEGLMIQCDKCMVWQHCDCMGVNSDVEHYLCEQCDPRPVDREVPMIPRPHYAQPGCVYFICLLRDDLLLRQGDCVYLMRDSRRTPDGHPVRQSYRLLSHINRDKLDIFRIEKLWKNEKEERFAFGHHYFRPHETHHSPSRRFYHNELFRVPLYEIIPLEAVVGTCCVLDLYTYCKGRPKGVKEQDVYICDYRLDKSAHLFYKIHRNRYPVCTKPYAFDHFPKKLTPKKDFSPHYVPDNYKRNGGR

In assay [2] the target is T2, ASH1L plant homeodomain (PHD) finger, wild type (aa 2579-2629) (human, UniProt Q9NR48 2579-2629).
T2 chain: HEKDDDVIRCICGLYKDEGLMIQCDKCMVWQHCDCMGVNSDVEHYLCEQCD
Nature of the assay: MST.

Assay [3] addresses T3, ASH1L PHD finger Y2693K (human, UniProt Q9NR48 2579-2629).
T3 chain: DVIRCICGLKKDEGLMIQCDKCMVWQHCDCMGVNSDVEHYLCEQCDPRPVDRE

Assay [4] deals with ASH1L PHD finger S2618A (human, UniProt Q9NR48 2579-2629, S2618A).
Assay [5] has as its target ASH1L PHD finger Q2601K (human, UniProt Q9NR48 2579-2629, Q2601K).
The target in assay [6] is T2, ASH1L plant homeodomain (PHD) finger, ….
In assay [7] the target is ASH1L PHD finger D2595A (human, UniProt Q9NR48 2579-2629, Substitution of D2595 with alanine).
The target in assay [8] is ASH1L PHD finger D2584A (human, UniProt Q9NR48 2579-2629, Substitution of D2584 with alanine).
Assay [9] concerns the target ASH1L PHD finger D2603A (human, UniProt Q9NR48 2579-2629, D2603A).

B1: histone H3K4me3 peptide (aa 1-12 of H3) (peptide)
peptide: ARTK(Me3)QTARKSTG
Take B1: the Kd – broadly, the concentration at which binding is half-saturated – in assay [1] was found to be 1 µM; in assay [2], 1.1 µM; in [3] it was 1.8 µM; in assay [4] it was 5.9 µM; in assay [5], 1 µM; in [6], 1.6 µM. In addition, the Kd in [7] was determined as 6.7 µM; in assay [8], 4.6 µM; in [9], 2 µM.

B2: histone H3K4me2 peptide (aa 1-12 of H3) (peptide)
peptide: ARTK(Me2)QTARKSTG
B2: the dissociation constant (Kd) in assay [6] came to 1 µM.
